Experimental data as given in patent US20240408167A1, “COMPOSITION FOR TREATING OCULAR DISEASES CONTAINING PEPTIDE” (Encuragen Inc., priority 2023, published 2024).
“And” between values parts separate entries of the source, which are not always exact repeats. Identical values can stand only once.

Key:
[1] = system: CD11b+ monocytes; assay: CD11b+ monocytes by flow cytometry, EDE mouse model; type: in vivo; conditions: for geometric mean number of CD11b+ monocytes: cornea
Description: The cornea, conjunctiva, and each tissue required for analysis were excised with scissors, incised, and shaken with 0.5 mg/mL collagenase type D at 37° C. for 1 hour. After pulverizing the tissue, the resulting mixture was passed through a cell strainer, centrifuged, and resuspended in phosphate-buffered saline containing 1% bovine serum albumin.
In DED, corneal barrier destruction and epithelial cell loss are accompanied by bone marrow and T cell infiltration. Activated T lymphocytes are the primary producers of Th-1 cytokines and interferon (IFN)-γ, which promote cell death at the ocular surface. To evaluate the anti-inflammatory effect of (PEG)-BHD1028 in the EDE mouse model, immune cells that play the role of inflammatory cell surface markers were quantified by flow cytometry with one animal per group.

[2] = system: corneal epithelium; assay: Corneal epithelial thickness after H&E staining, EDE rabbit model; type: in vivo; conditions: all treatment groups (0.1%, 0.2%, 0.4%), vs vehicle, p<0.001
From the text: The extracted eyes were washed with phosphate-buffered saline (PBS), fixed in the modified Davidson's solution, and embedded in paraffin (Histocore Arcadia, Leica, Wetzlar, Germany). Afterwards, paraffin blocks were sliced into sections of a ˜6 μm thickness, mounted on microscope slides (HistoCore AUTOCUT, Leica, Germany), air dried, and stained with hematoxylin-eosin. The stained tissue slides were imaged, and data were obtained using an optical microscope/digital slide scanner (Axio Scan.Z1, Zeiss, Oberkochen, Germany). Image measurement was performed using ZEN (Zeiss, Germany) and ImageJ (NIH, Bethesda, […], USA) software programs.
The pathophysiology of dry eye syndrome includes pathological changes in the epithelium such as erosion, cicatrix, scar, corneal neovascularization and, in severe conditions, corneal perforation. The protective effect of (PEG)-BHD1028 on the epithelium was evaluated by measuring the corneal thickness using ZEN (Zeiss, Germany) microscopy software program after H&E tissue staining.

[3] = system: apoptotic cells in cornea and conjunctiva; assay: Apoptotic cells by TUNEL assay, EDE mouse model; type: in vivo; conditions: 0.001%, 0.01%, 0.1%
Description: The eyes and appendages from each group were excised, fixed in the modified Davidson's solution, and embedded in paraffin, and the tissue sections were TUNEL-stained. In each section, the degree of apoptosis in the cornea and conjunctiva was measured using ZEN (Zeiss, Oberkochen, Germany) and Image J v1.51j8 (NIH, Bethesda, MD, USA) software programs.
As DED progresses, the epithelium of the anterior segment of the eye undergoes pathological deformations, including functional damages and structural changes such as abnormal tear sebum secretion and pathogenic cell death. Apoptotic cells that were present in an equal area of the cornea and conjunctiva of one eye per group were quantified by the TUNEL assay.

[4] = Stability according to pH, HPLC residual amount at 40±2° C.; type: physicochemical; conditions: for Residual amount: 40±2° C.
Description: To evaluate the stability of eye drops according to pH, a 10 mM pH buffer [10 mM sodium phosphate buffer+0.02% sodium azide (pH 5.5, pH 6.0, pH 6.5, pH 7.0) or a 10 mM PBS+WELGENE fresh media 10×PBS (pH 7.4)] was mixed with (PEG)-BHD1028 and the resulting mixture was incubated at 40±2° C., and then the stability was evaluated through an HPLC analysis. As a result of the evaluation, there was no significant difference in the residual amount between the formulation prepared at pH 6.5, which was set as the target pH of the eye drops, and the formulation prepared at 7.0, which was the average pH of the eyes, as shown in Table 4 below.

[5] = Osmotic pressure of trehalose-mannitol composite formulations; type: physicochemical; conditions: trehalose-mannitol composite formulation
Description: The osmotic pressure of the trehalose-only formulations according to the (PEG)-BHD1028 content (see Table 5) and the osmotic pressure of the trehalose-mannitol composite formulations according to the (PEG)-BHD1028 content (see Table 6) were measured, and reflecting the experimental results, the osmolarity including the 0.5% (PEG)-BHD1028 concentration was adjusted to about 300 mOsm/kg.

[6] = system: BALB/3T3 clone A31 cells; assay: cells; type: cell-based
Description: To evaluate the phototoxicity of (PEG)-BHD1028, the potential phototoxicity of (PEG)-BHD1028 was measured in the BALB/3T3 clone A31 cells after UV exposure. The test substance and the positive control group (chlorpromazine hydrochloride; CPZ) were dissolved in a Hank's Balanced Salt Solution (HBSS) and then diluted with a Hank's Balanced Salt Solution (HBSS). The cells were trypsinized and counted. Thereafter, 1×10^4 cells per well were seeded in a 96-well plate and cultured for approximately 24 hours before treating the test samples. One hour after the sample treatment, the plate was irradiated with a UV irradiation system (UVA, 365 nm). After UV irradiation, the plate was incubated for 24 hours. The cell viability of the cultured cells was confirmed by measuring the absorbance at 540 nm using the neutral red staining method.

[7] = pI value of the API; type: physicochemical

Substance: NH2-Tyr-Tyr-Phe-Ala-Tyr-His-Pro-Asn-Ile-Pro-Gly-Leu-Tyr-Tyr-Phe-COOH (H-YYFAYHPNIPGLYYF-OH; also: PEGylated, site not given here (mPEG), acetate salt) [(PEG)-BHD1028]
- number of CD11b+ monocytes ([1]; conjunctiva, 0.001%): 352.09
- number of CD11b+ monocytes ([1]; conjunctiva, 0.01%): 330.48
- number of CD11b+ monocytes ([1]; conjunctiva, 0.1%): 36.35
- geometric mean number of CD11b+ monocytes ([1]; 0.001%): 178.06
- geometric mean number of CD11b+ monocytes ([1]; 0.01%): 131.59
- geometric mean number of CD11b+ monocytes ([1]; 0.1%): 126.25
- number of CD11b+ monocytes ([1]; lacrimal gland, 0.001%): 84
- number of CD11b+ monocytes ([1]; lacrimal gland, 0.01%): 74.60
- number of CD11b+ monocytes ([1]; lacrimal gland, 0.1%): 60.48
- mean corneal epithelial thickness [2]: significantly greater than that of the vehicle treated animals
- antiapoptotic effect (TUNEL) in the cornea and conjunctiva [3]: dose-dependent antiapoptotic effect
- Residual amount ([4]; PBS (pH 7.4), Day 0): 100.0%
- Residual amount ([4]; PBS (pH 7.4), Day 1): 97.1%
- Residual amount ([4]; PBS (pH 7.4), Day 3): 92.3%
- Residual amount ([4]; PBS (pH 7.4), Day 7): 89.9%
- Residual amount ([4]; pH 5.5, Day 0): 100.0%
- Residual amount ([4]; pH 5.5, Day 1): 98.4%
- Residual amount ([4]; pH 5.5, Day 3): 97.2%
- Residual amount ([4]; pH 5.5, Day 7): 96.6%
- Residual amount ([4]; pH 6.0, Day 0): 100.0%
- Residual amount ([4]; pH 6.0, Day 1): 99.8%
- Residual amount ([4]; pH 6.0, Day 3): 99.0%
- Residual amount ([4]; pH 6.0, Day 7): 98.1%
- Residual amount ([4]; pH 6.5, Day 0): 100.0%
- Residual amount ([4]; pH 6.5, Day 1): 99.7%
- Residual amount ([4]; pH 6.5, Day 3): 98.7%
- Residual amount ([4]; pH 6.5, Day 7): 97.3%
- Residual amount ([4]; pH 7.0, Day 0): 100.0%
- Residual amount ([4]; pH 7.0, Day 1): 99.2%
- Residual amount ([4]; pH 7.0, Day 3): 98.7%
- Residual amount ([4]; pH 7.0, Day 7): 94.9%
- most stable pH within the pH range of normal tears ([4]; pH range 6.5 to 7.6): 6.5
- osmotic pressure, Mean ([5]; 0.5%): 301.00 mOsm/kg
- osmotic pressure, single measurements #1-#3 ([5]; 0.5%): 301 mOsm/kg and 399 mOsm/kg and 303 mOsm/kg
- osmotic pressure, Mean ([5]; 1.5%): 309.33 mOsm/kg
- osmotic pressure, single measurements #1-#3 ([5]; 1.5%): 309 mOsm/kg and 312 mOsm/kg and 307 mOsm/kg
- osmotic pressure, Mean ([5]; 4.5%): 338.33 mOsm/kg
- osmotic pressure, single measurements #1-#3 ([5]; 4.5%): 338 mOsm/kg and 339 mOsm/kg
- MPE (mean photo effect) [6]: 0.003
- PIF (photo irradiation factor) [6]: 1.000
- phototoxicity classification by PIF and MPE [6]: non-phototoxic
- IC50 UV (+Irr) ([6]; BALB/3T3 clone A31 cells, UVA 365 nm irradiation, neutral red): >1000 µg/mL
- IC50 UV (−Irr) ([6]; BALB/3T3 clone A31 cells, without UV irradiation, neutral red): >1000 µg/mL
- pI value [7]: approximately 6.6
